# Results published in patent US20230235013A1 (MABSOLVE, published 2023).
# Numbering of substitutions follows the chain as printed. Numbers in names are those of the source.
# T1: human FcγRIIA (R131, Sino Biological Cat. No. 10374-H08H) (human, UniProt P12318 34-218)
# T1 construct: bought; also called human FcγRIIa R131 allele; FcγRII allele R131
# T1 sequence (looked up): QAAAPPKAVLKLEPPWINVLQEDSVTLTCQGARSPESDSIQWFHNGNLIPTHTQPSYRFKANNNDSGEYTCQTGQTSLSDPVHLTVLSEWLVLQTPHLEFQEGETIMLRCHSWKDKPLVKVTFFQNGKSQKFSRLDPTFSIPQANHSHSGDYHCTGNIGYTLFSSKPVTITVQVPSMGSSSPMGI
# B1: anti-CD20 mouse IgG2a L234Q/L235S/G236R (antibody)
# heavy: QVQLQQPGAELVKPGASVKMSCKASGYTFTSYNMHWVKQTPGRGLEWIGAIYPGNGDTSYNQKFKGKATLTADKSSSTAYMQLSSLTSEDSAVYYCARSTYYGGDWYFNVWGAGTTVTVSSAKTTAPSVYPLAPVCGDTTGSSVTLGCLVKGYFPEPVTLTWNSGSLSSGVHTFPAVLQSDLYTLSSSVTVTSSTWPSQSITCNVAHPASSTKVDKKIEPRGPTIKPCPPCKCPAPNQSRGPSVFIFPPKIKDVLMISLSPIVTCVVVDVSEDDPDVQISWFVNNVEVHTAQTQTHREDYNSTLRVVSALPIQHQDWMSGKEFKCKVNNKDLPAPIERTISKPKGSVRAPQVYVLPPPEEEMTKKQVTLTCMVTDFMPEDIYVEWTNNGKTELNYKNTEPVLDSDGSYFMYSKLRVEKKNWVERNSYSCSVVHEGLHNHHTTKSFSRTPGK
# light: QIVLSQSPAILSASPGEKVTMTCRASSSVSYIHWFQQKPGSSPKPWIYATSNLASGVPVRFSGSGSGTSYSLTISRVEAEDAATYYCQQWTSNPPTFGGGTKLEIKRADAAPTVSIFPPSSEQLTSGGASVVCFLNNFYPKDINVKWKIDGSERQNGVLNSWTDQDSKDSTYSMSSTLTLTKDEYERHNSYTCEATHKTSTSPIVKSFNRNEC
# notes: copies: 2 + 2
# B2: anti-CD20 rabbit IgG L234Q/L235S/G236R (antibody)
# heavy: QVQLQQPGAELVKPGASVKMSCKASGYTFTSYNMHWVKQTPGRGLEWIGAIYPGNGDTSYNQKFKGKATLTADKSSSTAYMQLSSLTSEDSAVYYCARSTYYGGDWYFNVWGAGTTVTVSSGQPKAPSVFPLAPCCGDTPSSTVTLGCLVKGYLPEPVTVTWNSGTLTNGVRTFPSVRQSSGLYSLSSVVSVTSSSQPVTCNVAHPATNTKVDKTVAPSTCSKPTCPPPEQSRGPSVFIFPPKPKDTLMISRTPEVTCVVVDVSEDDPEVQFTWYINNEQVRTARPPLREQQFNSTIRVVSTLPIAHEDWLRGKEFKCKVHNKALPAPIEKTISKARGQPLEPKVYTMGPPREELSSRSVSLTCMINGFYPSDISVEWEKNGKAEDNYKTTPAVLDSDGSYFLYSKLSVPTSEWQRGDVFTCSVMHEALHNHYTQKSISRSPGK
# light: QIVLSQSPAILSASPGEKVTMTCRASSSVSYIHWFQQKPGSSPKPWIYATSNLASGVPVRFSGSGSGTSYSLTISRVEAEDAATYYCQQWTSNPPTFGGGTKLEIKRDPVAPSVLLFPPSKEELTTGTATIVCVANKFYPSDITVTWKVDGTTQQSGIENSKTPQSPEDNTYSLSSTLSLTSAQYNSHSVYTCEVVQGSASPIVQSFNRGDC
# notes: also called 23.77
# B3: anti-CD20 human IgG1 L234G/L235S/G236R (antibody)
# heavy: QVQLQQPGAELVKPGASVKMSCKASGYTFTSYNMHWVKQTPGRGLEWIGAIYPGNGDTSYNQKFKGKATLTADKSSSTAYMQLSSLTSEDSAVYYCARSTYYGGDWYFNVWGAGTTVTVSSASTKGPSVFPLAPSSKSTSGGTAALGCLVKDYFPEPVTVSWNSGALTSGVHTFPAVLQSSGLYSLSSVVTVPSSSLGTQTYICNVNHKPSNTKVDKKVEPKSCDKTHTCPPCPAPEGSRGPSVFLFPPKPKDTLMISRTPEVTCVVVDVSHEDPEVKFNWYVDGVEVHNAKTKPREEQYNSTYRVVSVLTVLHQDWLNGKEYKCKVSNKALPAPIEKTISKAKGQPREPQVYTLPPSRDELTKNQVSLTCLVKGFYPSDIAVEWESNGQPENNYKTTPPVLDSDGSFFLYSKLTVDKSRWQQGNVFSCSVMHEALHNHYTQKSLSLSPGK
# light: QIVLSQSPAILSASPGEKVTMTCRASSSVSYIHWFQQKPGSSPKPWIYATSNLASGVPVRFSGSGSGTSYSLTISRVEAEDAATYYCQQWTSNPPTFGGGTKLEIKRTVAAPSVFIFPPSDEQLKSGTASVVCLLNNFYPREAKVQWKVDNALQSGNSQESVTEQDSKDSTYSLSSTLTLSKADYEKHKVYACEVTHQGLSSPVTKSFNRGEC
# notes: also called 1-59; 2-19; copies: 2 + 2
# B4: anti-CD20 human IgG1 L234T/L235T/G236R (antibody)
# heavy: B3 heavy with G238T, S239T
# light: B3 light
# notes: also called 1-165; 2-63; copies: 2 + 2
# B5: anti-CD20 human IgG1 L234S/L235T/G236R (antibody)
# heavy: B3 heavy with G238S, S239T
# light: B3 light
# notes: also called 1-150; 2-52; copies: 2 + 2
# B6: anti-CD20 human IgG1 L234T/L235Q/G236R (antibody)
# heavy: B3 heavy with G238T, S239Q
# light: B3 light
# notes: also called 2-60; copies: 2 + 2
# B7: anti-CD3 (muromonab) human IgG1 wild-type reference (antibody)
# heavy: not shown
# light: QIVLTQSPAIMSASPGEKVTMTCSASSSVSYMNWYQQKSGTSPKRWIYDTSKLASGVPAHFRGSGSGTSYSLTISGMEAEDAATYYCQQWSSNPFTFGSGTKLEIKRTVAAPSVFIFPPSDEQLKSGTASVVCLLNNFYPREAKVQWKVDNALQSGNSQESVTEQDSKDSTYSLSSTLTLSKADYEKHKVYACEVTHQGLSSPVTKSFNRGEC
# notes: also called 3-1; copies: 2 + 2
# B8: anti-CD3 (muromonab) human IgG1 L234T/L235Q/G236R (antibody)
# heavy: not shown
# light: B7 light
# notes: EU numbering; also called 3-60; copies: 2 + 2
# B9: anti-CD3 (muromonab) human IgG1 L234S/L235V/G236R (antibody)
# heavy: not shown
# light: B7 light
# notes: EU numbering; also called 3-53; copies: 2 + 2
# B10: anti-CD3 (muromonab) human IgG1 L234G/L235S/G236R (antibody)
# heavy: not shown
# light: B7 light
# notes: EU numbering; also called 3-19; copies: 2 + 2
# B11: anti-CD3 (muromonab) human IgG1 N297Q (aglycosyl) (antibody)
# heavy: not shown
# light: B7 light
# notes: EU numbering; also called 3-67; copies: 2 + 2
# B12: anti-CD3 (muromonab) human IgG1 L234A/L235A/P329G (LALAPG reference) (antibody)
# heavy: not shown
# light: B7 light
# notes: EU numbering; also called 3-66; copies: 2 + 2
# B13: anti-CD3 (muromonab) human IgG1 L234S/L235T/G236R (antibody)
# heavy: not shown
# light: B7 light
# notes: EU numbering; also called 3-52; copies: 2 + 2
# B14: anti-CD3 (muromonab) human IgG1 L234T/L235T/G236R (antibody)
# heavy: not shown
# light: B7 light
# notes: EU numbering; also called 3-63; copies: 2 + 2
# B15: anti-CD3 (muromonab) human IgG1 L234A/L235A (LALA) (antibody)
# heavy: not shown
# light: B7 light
# notes: EU numbering; also called 3-65; copies: 2 + 2
# B16: anti-CD52 (alemtuzumab) human IgG1 wild-type reference (antibody)
# heavy: not shown
# light: not shown
# notes: also called 4-1; copies: 2 + 2
# Target: T2, Histidine-tagged recombinant human FcγRI (CD64) (human, UniProt P12314 16-288)
# T2 construct: bought; also called Sino Biological Cat. No. 12056-H08H
# Experiment: SPR, captured His-receptor
row,binding result,Binder
1,no binding (tested: 100 µg/mL),B1
2,no binding (tested: 100 µg/mL),B2
3,no binding (tested: 100 µg/mL),B3
4,no binding (tested: 100 µg/mL),B4
5,no binding (tested: 100 µg/mL),B5
6,no binding (tested: 100 µg/mL),B6

# Target: T1, human FcγRIIA (R131, Sino Biological …)
# Experiment: SPR, captured His-receptor
row,binding result,Binder
1,no binding (tested: 100 µg/mL),B1
2,no binding (tested: 100 µg/mL),B2
3,no binding (tested: 100 µg/mL),B3
4,no binding (tested: 100 µg/mL),B4
5,no binding (tested: 100 µg/mL),B5
6,no binding (tested: 100 µg/mL),B6

# Target: T3, human FcγRIIIB (NA2 allotype, Sino Biological Cat. No. 11046-H08H) (human, UniProt O75015 17-200)
# T3 construct: bought; also called human FcγRIIIb NA2 allele
# Experiment: SPR, captured His-receptor
row,binding result,Binder
1,no binding (tested: 100 µg/mL),B1
2,no binding (tested: 100 µg/mL),B2
3,no binding (tested: 100 µg/mL),B3
4,no binding (tested: 100 µg/mL),B4
5,no binding (tested: 100 µg/mL),B5
6,no binding (tested: 100 µg/mL),B6

# Target: T2, Histidine-tagged recombinant human …
# Experiment: SPR, culture supernatant, captured His-FcγRI;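 note: biacore T200 SPR at 25 °C, anti-His capture, supernatants of HEK293 cells expressing IgG1 Fc variants injected 1 min, reference-subtracted response read 55 s after injection start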
row,Mean binding response [RU],Binder
1,21.8,B3
2,16.2,B5
3,17,B6

# Target: T4, Human C1q (Sigma Cat. No. 20476), HRP-labelled (human, UniProt P02745 23-245; P02746 28-253; P02747 29-245)
# T4 construct: Coupled to horse-radish peroxidase with Lightning-Link kit; also called HRP-labelled C1q
# Experiment: ELISA, antibody coated, HRP-C1q; Expt 1, buffer alone 0.053
row,Mean Absorbance,Binder
1,0.769 absorbance (450 nm),B7
2,0.047 absorbance (450 nm),B8
3,0.047 absorbance (450 nm),B9
4,0.052 absorbance (450 nm),B10
5,0.052 absorbance (450 nm),B11
6,0.052 absorbance (450 nm),B12
7,0.048 absorbance (450 nm),B13
8,0.047 absorbance (450 nm),B14
9,0.053 absorbance (450 nm),B15
10,1.42 absorbance (450 nm),B16

# Target: T4, Human C1q (Sigma Cat. No. 20476), …
# Experiment: ELISA, antibody coated, HRP-C1q; Expt 2, buffer alone 0.051
row,Mean Absorbance,Binder
1,0.432 absorbance (450 nm),B7
2,0.045 absorbance (450 nm),B8
3,0.042 absorbance (450 nm),B9
4,0.049 absorbance (450 nm),B10
5,0.051 absorbance (450 nm),B11
6,0.044 absorbance (450 nm),B12
7,0.046 absorbance (450 nm),B13
8,0.048 absorbance (450 nm),B14
9,0.051 absorbance (450 nm),B15
10,0.649 absorbance (450 nm),B16
